Experimental data: article PMC2716403 (2009)

B1: Nup153 ZnF region (protein)
chain: AGSSWQCDTCLLQNKVTDNKCIACQAAKLPLKETAKQTGIGTPSKSDKPASTSGTGFGDKFKPAIGTWDCDTCLVQNKPEAVKCVACETPKPGTGVKRALPLTVASESPVTASSSTTVTTGTLGFGDKFKRPVGSWECPVCCVSNKAEDSRCVSCTSEKPGLVSASSSNSVPVSLPSGGCLGLDKFKKPEGSWDCEVCLVQNKADSTKCIACESAKPGTKSEFKGFGT
modifications: GDP-bound Ran
B2: Nup153 ZnF region (protein)
chain: B1 chain

These binders were tested against Ran (Homo sapiens, UniProt P62826) (assay: ITC).

**Q.** VGSWECPVCCVSNKAEDSRCVSCTSEKPG (GDP-bound Ran) [Nup153 ZnF3 ZnF3] was tested. Which Kd did it give?
**A.** Its Kd is 6.6 µM.

**Q.** For B1, which Kd is on record?
**A.** The Kd was 1 µM.

**Q.** How did the Kd turn out when AGSSWQCDTCLLQNKVTDNKCIACQAAKL (GDP-bound Ran) [Nup153 ZnF1 ZnF1] was run?
**A.** The Kd was 6.5 µM.

**Q.** With B2 as the binder, how does the Kd read?
**A.** Its Kd is 20 µM.
